Laboratory results from publication PMC3476531, “Synergy of Peptide and Sugar in O-GlcNAcase Substrate Recognition” (Chemistry & Biology, 2012).
*: point of attachment. βGlcNAc = CC(=O)N[C@@H]1[C@@H](O)[C@H](O)[C@@H](CO)O[C@H]1*

Experiments:
[1] = molecular target: T1, human O-GlcNAcase (hOGA), wild-type (human) (UniProt O60502)
T1 sequence: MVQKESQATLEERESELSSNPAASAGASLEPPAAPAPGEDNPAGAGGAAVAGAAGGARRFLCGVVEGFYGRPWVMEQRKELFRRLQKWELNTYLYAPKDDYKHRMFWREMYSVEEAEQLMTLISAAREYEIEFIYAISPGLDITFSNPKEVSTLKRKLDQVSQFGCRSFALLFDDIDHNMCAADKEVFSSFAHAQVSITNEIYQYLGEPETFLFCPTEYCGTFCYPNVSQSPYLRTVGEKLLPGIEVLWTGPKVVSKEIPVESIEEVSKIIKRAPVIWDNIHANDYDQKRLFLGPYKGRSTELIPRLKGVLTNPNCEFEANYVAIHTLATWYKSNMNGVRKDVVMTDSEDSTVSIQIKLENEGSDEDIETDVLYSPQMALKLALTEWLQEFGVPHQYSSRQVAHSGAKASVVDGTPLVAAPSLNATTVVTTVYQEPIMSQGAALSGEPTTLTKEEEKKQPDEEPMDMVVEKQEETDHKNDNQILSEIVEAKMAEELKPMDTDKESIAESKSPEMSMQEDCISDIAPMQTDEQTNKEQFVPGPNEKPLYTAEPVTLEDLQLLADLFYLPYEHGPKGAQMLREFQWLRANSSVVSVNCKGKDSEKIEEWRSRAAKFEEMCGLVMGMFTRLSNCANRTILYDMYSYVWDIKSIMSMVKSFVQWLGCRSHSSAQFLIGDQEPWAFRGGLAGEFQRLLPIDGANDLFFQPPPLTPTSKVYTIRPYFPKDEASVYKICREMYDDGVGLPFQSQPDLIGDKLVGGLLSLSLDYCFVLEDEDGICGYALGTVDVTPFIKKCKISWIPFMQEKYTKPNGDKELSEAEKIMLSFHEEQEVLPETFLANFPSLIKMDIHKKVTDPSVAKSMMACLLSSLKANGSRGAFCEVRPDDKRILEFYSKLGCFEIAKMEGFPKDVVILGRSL

[2] = molecular target: T2, human O-GlcNAcase (hOGA) Y69Q (human) (UniProt O60502)
T2 sequence: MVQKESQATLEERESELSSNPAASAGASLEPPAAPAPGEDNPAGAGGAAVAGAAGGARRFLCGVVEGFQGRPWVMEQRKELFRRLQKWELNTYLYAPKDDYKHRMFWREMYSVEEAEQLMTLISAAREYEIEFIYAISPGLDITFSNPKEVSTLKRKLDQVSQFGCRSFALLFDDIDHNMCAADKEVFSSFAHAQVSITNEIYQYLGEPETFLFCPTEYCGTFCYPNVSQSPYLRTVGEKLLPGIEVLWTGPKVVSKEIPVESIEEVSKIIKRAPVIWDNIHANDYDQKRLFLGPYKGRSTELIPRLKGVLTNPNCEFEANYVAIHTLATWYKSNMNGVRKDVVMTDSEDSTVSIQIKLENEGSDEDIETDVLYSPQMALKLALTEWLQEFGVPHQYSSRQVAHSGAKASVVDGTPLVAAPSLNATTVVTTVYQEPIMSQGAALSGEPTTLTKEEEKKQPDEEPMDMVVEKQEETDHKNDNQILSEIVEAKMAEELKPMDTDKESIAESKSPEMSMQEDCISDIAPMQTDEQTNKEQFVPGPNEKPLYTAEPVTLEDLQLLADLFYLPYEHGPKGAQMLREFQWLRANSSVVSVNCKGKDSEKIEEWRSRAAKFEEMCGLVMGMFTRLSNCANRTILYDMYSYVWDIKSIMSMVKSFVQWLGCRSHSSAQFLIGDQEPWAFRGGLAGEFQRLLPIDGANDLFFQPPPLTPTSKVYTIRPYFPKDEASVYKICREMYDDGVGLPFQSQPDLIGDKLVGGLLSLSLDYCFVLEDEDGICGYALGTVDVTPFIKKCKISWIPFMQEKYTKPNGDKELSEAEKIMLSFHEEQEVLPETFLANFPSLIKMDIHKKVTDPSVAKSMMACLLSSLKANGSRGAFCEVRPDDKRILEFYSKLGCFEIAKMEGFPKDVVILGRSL

[3] = molecular target: T3, human O-GlcNAcase (hOGA) Y69F (human) (UniProt O60502)
T3 sequence: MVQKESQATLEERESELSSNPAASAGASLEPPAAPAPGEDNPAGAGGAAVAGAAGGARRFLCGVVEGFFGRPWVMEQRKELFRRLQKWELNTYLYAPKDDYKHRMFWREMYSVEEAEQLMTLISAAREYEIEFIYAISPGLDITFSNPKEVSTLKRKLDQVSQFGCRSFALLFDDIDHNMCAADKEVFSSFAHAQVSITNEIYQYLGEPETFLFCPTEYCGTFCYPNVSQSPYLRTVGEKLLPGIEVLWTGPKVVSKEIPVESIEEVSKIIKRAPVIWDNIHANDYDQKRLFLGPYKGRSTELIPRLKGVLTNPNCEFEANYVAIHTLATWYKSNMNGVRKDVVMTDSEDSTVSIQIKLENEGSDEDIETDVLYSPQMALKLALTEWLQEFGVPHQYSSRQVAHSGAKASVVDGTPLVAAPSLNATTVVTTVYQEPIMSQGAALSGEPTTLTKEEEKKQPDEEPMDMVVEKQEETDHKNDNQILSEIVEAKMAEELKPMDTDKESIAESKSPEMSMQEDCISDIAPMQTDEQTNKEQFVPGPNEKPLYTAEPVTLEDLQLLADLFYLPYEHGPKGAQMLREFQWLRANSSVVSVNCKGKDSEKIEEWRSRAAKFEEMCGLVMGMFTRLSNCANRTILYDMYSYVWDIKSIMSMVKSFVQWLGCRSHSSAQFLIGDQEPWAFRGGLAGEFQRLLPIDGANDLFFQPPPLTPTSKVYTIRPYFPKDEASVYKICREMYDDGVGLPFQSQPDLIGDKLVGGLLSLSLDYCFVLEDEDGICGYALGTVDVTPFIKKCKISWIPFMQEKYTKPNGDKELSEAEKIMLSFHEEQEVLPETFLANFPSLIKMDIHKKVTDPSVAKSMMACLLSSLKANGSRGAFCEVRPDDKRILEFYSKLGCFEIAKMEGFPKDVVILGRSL

[4] = molecular target: T4, human O-GlcNAcase (hOGA) Y69S (human) (UniProt O60502)
T4 sequence: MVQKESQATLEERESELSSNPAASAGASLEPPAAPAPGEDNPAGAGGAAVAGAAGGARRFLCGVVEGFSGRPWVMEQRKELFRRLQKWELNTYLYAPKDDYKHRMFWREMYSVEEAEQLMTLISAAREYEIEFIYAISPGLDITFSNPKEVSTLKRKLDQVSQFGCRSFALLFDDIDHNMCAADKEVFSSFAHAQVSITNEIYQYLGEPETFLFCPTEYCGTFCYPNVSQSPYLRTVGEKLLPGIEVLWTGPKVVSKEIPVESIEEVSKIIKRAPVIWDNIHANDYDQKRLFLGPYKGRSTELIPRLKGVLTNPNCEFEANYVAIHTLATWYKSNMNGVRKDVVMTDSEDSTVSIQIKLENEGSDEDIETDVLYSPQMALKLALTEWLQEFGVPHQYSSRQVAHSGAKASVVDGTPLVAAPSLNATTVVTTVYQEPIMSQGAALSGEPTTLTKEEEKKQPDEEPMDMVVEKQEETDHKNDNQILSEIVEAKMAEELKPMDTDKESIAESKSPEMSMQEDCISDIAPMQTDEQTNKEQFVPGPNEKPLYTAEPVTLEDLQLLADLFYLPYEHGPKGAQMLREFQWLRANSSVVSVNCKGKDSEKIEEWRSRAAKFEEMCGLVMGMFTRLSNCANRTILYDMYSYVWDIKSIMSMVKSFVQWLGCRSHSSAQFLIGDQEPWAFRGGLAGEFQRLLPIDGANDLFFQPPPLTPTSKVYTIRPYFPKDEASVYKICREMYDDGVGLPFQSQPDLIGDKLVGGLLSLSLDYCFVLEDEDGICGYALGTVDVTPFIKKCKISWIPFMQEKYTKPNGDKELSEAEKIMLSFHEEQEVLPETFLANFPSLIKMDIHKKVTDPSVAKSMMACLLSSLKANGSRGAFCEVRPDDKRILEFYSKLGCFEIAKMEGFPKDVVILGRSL

[5] = molecular target: T5, human O-GlcNAcase (hOGA) Y69K (human) (UniProt O60502)
T5 sequence: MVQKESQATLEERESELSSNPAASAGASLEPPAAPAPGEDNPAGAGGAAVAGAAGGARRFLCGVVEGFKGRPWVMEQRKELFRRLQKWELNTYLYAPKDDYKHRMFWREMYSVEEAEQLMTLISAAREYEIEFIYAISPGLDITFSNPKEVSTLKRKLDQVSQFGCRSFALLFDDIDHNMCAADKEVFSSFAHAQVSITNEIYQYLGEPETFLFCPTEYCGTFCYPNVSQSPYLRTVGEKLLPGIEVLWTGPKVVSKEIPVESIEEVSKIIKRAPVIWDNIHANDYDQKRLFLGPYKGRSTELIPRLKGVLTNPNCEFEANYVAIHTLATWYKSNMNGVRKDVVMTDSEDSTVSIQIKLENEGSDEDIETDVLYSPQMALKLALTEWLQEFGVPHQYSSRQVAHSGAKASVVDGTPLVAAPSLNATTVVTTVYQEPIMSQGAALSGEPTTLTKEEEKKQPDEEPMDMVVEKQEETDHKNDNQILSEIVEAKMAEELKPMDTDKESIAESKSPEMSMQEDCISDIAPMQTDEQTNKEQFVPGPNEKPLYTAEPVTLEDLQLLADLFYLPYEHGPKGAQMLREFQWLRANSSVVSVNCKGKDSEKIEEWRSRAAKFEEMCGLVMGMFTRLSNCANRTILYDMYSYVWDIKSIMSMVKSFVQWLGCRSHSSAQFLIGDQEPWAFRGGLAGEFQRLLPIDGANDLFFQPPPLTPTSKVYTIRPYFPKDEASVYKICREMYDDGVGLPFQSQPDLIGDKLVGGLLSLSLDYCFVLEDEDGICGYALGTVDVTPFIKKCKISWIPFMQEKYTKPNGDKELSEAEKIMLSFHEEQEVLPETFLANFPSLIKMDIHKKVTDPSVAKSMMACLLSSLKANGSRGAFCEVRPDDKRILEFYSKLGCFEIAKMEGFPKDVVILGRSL

[6] = molecular target: T1, human O-GlcNAcase (hOGA), wild-type (human); remark: listed apart in the source

B1: p53 peptide QLWVDS(O-GlcNAc)TPPPG (peptide)
peptide: Ac-QLWVDS(βGlcNAc)TPPPG-NH2
SMILES: CC(=O)N[C@H]1[C@H](OC[C@H](NC(=O)[C@H](CC(=O)O)NC(=O)[C@@H](NC(=O)[C@H](Cc2c[nH]c3ccccc23)NC(=O)[C@H](CC(C)C)NC(=O)[C@H](CCC(N)=O)NC(C)=O)C(C)C)C(=O)N[C@H](C(=O)N2CCC[C@H]2C(=O)N2CCC[C@H]2C(=O)N2CCC[C@H]2C(=O)NCC(N)=O)[C@@H](C)O)O[C@H](CO)[C@@H](O)[C@@H]1O
KM of the glycopeptide substrate (substrate competition assay with 4MU-GlcNAc as reporter substrate) [1]: 21 µM

B2: hOGA peptide VAHS(O-GlcNAc)GAK (peptide)
peptide: VAHSGAK
KM of the glycopeptide substrate (substrate competition assay with 4MU-GlcNAc as reporter substrate) [2]: > 4000 µM
KM of the glycopeptide substrate (substrate competition assay with 4MU-GlcNAc as reporter substrate) [3]: 1200 µM
KM of the glycopeptide substrate (substrate competition assay with 4MU-GlcNAc as reporter substrate) [4]: > 4000 µM
KM of the glycopeptide substrate (substrate competition assay with 4MU-GlcNAc as reporter substrate) [5]: > 4000 µM

B3: TAB1 peptide (Ser395) VPHS(O-GlcNAc)SAQ, altered sequence (peptide)
peptide: VPHSSAQ
KM (hOGA) of the glycopeptide substrate (substrate competition assay with 4MU-GlcNAc as reporter substrate) [6]: 810 µM

B4: TAB1 peptide (Ser395) VPYS(O-GlcNAc)SAQ, original sequence (peptide)
peptide: Ac-VPYS(βGlcNAc)SAQ-NH2
SMILES: CC(=O)N[C@H]1[C@H](OC[C@H](NC(=O)[C@H](Cc2ccc(O)cc2)NC(=O)[C@@H]2CCCN2C(=O)[C@@H](NC(C)=O)C(C)C)C(=O)N[C@@H](CO)C(=O)N[C@@H](C)C(=O)N[C@@H](CCC(N)=O)C(N)=O)O[C@H](CO)[C@@H](O)[C@@H]1O
KM (hOGA) of the glycopeptide substrate (substrate competition assay with 4MU-GlcNAc as reporter substrate) [6]: 4100 µM
